Experiment: yeast display, Sf9 membrane polyspecificity reagent, FACS + sequencing; frameworks hold sequencing errors
Method in brief: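 Sorting gates, low and high (top ~1%), were placed on anti-HA fluorescence to track expression and on streptavidin fluorescence to track reagent binding. A clone's polyreactivity label is taken from the gate it came out of. The reagent was 10% biotinylated, detergent-solubilized Sf9 membrane, applied for 1 hour at 4 °C to galactose-induced yeast display cells.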
In the case of “QDQLVESGGGLVQAGGSLRLICAASGSTFVQYVMGWYRPAPGKERELVAAITRSCGSTYYADSVKGRFTISRDNAKNTVYLQMNSMKPEDSAVYYCAAYALRIQYDYWGQGTQVTVSS”, the “polyreactivity (PSR sort gate)” value is reported as “high polyreactivity”.
In the case of “QDQLVESGGGLVQAGGSLRLRCAASGRTFYMYAMGWYRQAPGKERELDAVISPSGGPTYYADSVKGRFTISRDNAKNPGSLQMNSMKPEDTAVFYCATDYAYSPYRYWTRYDYWGLGTQVTVSS”, the “polyreactivity (PSR sort gate)” value is reported as “high polyreactivity”.
In the case of “QDQLVESGGGLVQAGGSLRLRCAASRFYTMGWYRQAPGKERELVAAISWSGGDTYYADSVKGRFTISRDNAKNTVYLQMNSLKPEDTAVYYCAKKTIGSYVHEPYYYWGQGTQVTVSS”, the “polyreactivity (PSR sort gate)” value is reported as “low polyreactivity”.
In the case of “QDQLVESGGGLVQAGGSLRLSCAASGFIFGLYAMGWYRQAPGKERELVAAISSGGSTYYADSVKGRFTISRDNAKNTVYLQMNSLKPEDTAVYYCAAYYVYSEYDYWGQGTQVTVSS”, the “polyreactivity (PSR sort gate)” value is reported as “high polyreactivity”.
For “QDQLVESGGGLVQAGGSLRLSCAASGFIFKYYAMGWYRQAPGKVRELVAVISISGGSTYYADSVKGRLTISRDNAKNTVYLQMNSLKPEDTAVYYCNVYWRRTSTLAFDYCGQGTQVTVSS”, the “polyreactivity (PSR sort gate)” value was “high polyreactivity”.
In the case of “QDQLVESGGGLVQAGGSLRLSCAASGFIFRWYAMGWYRQAPGKERELVAAISRSGDSTYYADSVKGRFTISRDNAKNTVYLQMNSLIPEDTAVYYCAADDRYYTYGYDYWGQGTQVTVSS”, the “polyreactivity (PSR sort gate)” value is reported as “low polyreactivity”.
With “QDQLVESGGGLVQAGGSLRLSCAASGFIFYYNAMAWYRHAPGKERELVAAISYVGGSTYYADSVKGRFTISRDNAKNTVYLQLNSLKPEDTAFYYCAARVYWWIASLAGNYWGQGTQVSVSS” the “polyreactivity (PSR sort gate)” value was “low polyreactivity”.
For “QDQLVESGGGLVQAGGSLRLSCAASGFIIIGNAMGWYRQAPGKERELVAAISRRGGSTYYADSVKGRFTISRDHAKNTVYLQMNSLKPEDTALYYCNALTRRQKGGEGGGYWGQGTQVTVSS”, the “polyreactivity (PSR sort gate)” value was “high polyreactivity”.
With “QDQLVESGGGLVQAGGSLRLSCAASGFIIQCNAMGWYRQAPGKERELVAAISSSVSTYYADSVKGRFTISRDNAKNTVYLQMNSLKPEDTAVYYCNAGFPLSLWLGDYWGQGTQVTVSS” the “polyreactivity (PSR sort gate)” value was “low polyreactivity”.
With “QDQLVESGGGLVQAGGSLRLSCAASGFISRKNAMGWSRQAPGKERELVATITKSGDTTYYADSVKGRFTISRDNAKNTVYLQMNSLKPEDTAVYYCAAPLYYIGSWDYYVRYIYDYWGQGTQVTVSS” the “polyreactivity (PSR sort gate)” value was “low polyreactivity”.
In the case of “QDQLVESGGGLVQAGGSLRLSCAASGFNFDRYAMGWYRQAPGKERELVAAISRRGGSTYYADSVKGRFTISRDNAKNTVYLQMNSQKPEDTAVYYCAASRPSPRPRYGYWGQGTQVTVSS”, the “polyreactivity (PSR sort gate)” value is reported as “high polyreactivity”.
For “QDQLVESGGGLVQAGGSLRLSCAASGFNFDSYAMRWYIQAPGKERELVAAMSWSGSSTYSADSVKGRFTISRDNAKNTGYLQMNSLKPEDTAVYYCAALVYPYWGGSMYYWGQGTQVTVSS”, the “polyreactivity (PSR sort gate)” value was “high polyreactivity”.
For “QDQLVESGGGLVQAGGSLRLSCAASGFNFSPNAMGWYRQAPGKERELVAAIDWSGDRTYYADSVKGRFTISRDNAKNTVYLEMNSLKPEDTSVYYCNVVRRSTGEYSFYYWGQGTQVTVSS”, the “polyreactivity (PSR sort gate)” value was “low polyreactivity”.
In the case of “QDQLVESGGGLVQAGGSLRLSCAASGFTFAANAMGWSRQAPGKERELVAAISSDSTYADSVKGRFTISRDNAKNTVYLQLNSLKPEDTAVYYCAKDRYIVNSPGLDYWGQGTQVTVSS”, the “polyreactivity (PSR sort gate)” value is reported as “low polyreactivity”.
For “QDQLVESGGGLVQAGGSLRLSCAASGFTFGRYAMGWYRQAPGKERELVATITRTGSTNYADSVKGRFTISRDNAKNTVDLQMHSLKPEDTAVYYCNAVYSGWRYVKYDYWGPGTQVTVSS”, the “polyreactivity (PSR sort gate)” value was “low polyreactivity”.
With “QDQLVESGGGLVQAGGSLRLSCAASGFTFGYYAMGWYRQAPGKERELVAAISTRGTSTYYADSVKGRFTISRDNAKNTVYLQMNSLKPEDTAVYYCARDKATDHGYNEFDYWGQGTQVTVSS” the “polyreactivity (PSR sort gate)” value was “low polyreactivity”.
For “QDQLVESGGGLVQAGGSLRLSCAASGFTFGYYPMGWSRQAPGKERELVAAITSSGGRTYYADSVKGRFTISRDYGKNTVYLQMNSLKPEDTAVYYCATAYRPDYGYWGQGTQVTRSS”, the “polyreactivity (PSR sort gate)” value was “high polyreactivity”.
For “QDQLVESGGGLVQAGGSLRLSCAASGFTFNTYAMGWNRQAPGKERELVDAISKSGTRTYYADSVKGRFTISRDNAKNTVYLQMKSLKPEVTAVYYCAAEALYYYRLGWVYLRYDYWGQGTQVTVSS”, the “polyreactivity (PSR sort gate)” value was “high polyreactivity”.
In the case of “QDQLVESGGGLVQAGGSLRLSCAASGFTFTIYAMGGYRQAPGKEREFVAAISYTDGSTFYVDSVKGRFTISRDYAKNTVYLQMTSLKPEDTAVYYCAKDRPGWVHRRPTGGFDYWGQGTQVTVSS”, the “polyreactivity (PSR sort gate)” value is reported as “low polyreactivity”.
With “QDQLVESGGGLVQAGGSLRLSCAASGFTFYPYAMGWYRQAPGKERELVAAITYIGSTYYADSVKGRFTISRDNAKNTVYLQMNSLKPEDTAVYYCAAVKVFLGLGYDYWGQGTQVTVSS” the “polyreactivity (PSR sort gate)” value was “low polyreactivity”.
With “QDQLVESGGGLVQAGGSLRLSCAASGFTYEKYAMGSYRTAPGKERELVASISWSGGRTRYADSVMGRFTISRDNAKNTVYLQMNSLKPEDTAVYYCAARGAYKSAYNRNEYWGQGTQVTVSS” the “polyreactivity (PSR sort gate)” value was “high polyreactivity”.
In the case of “QDQLVESGGGLVQAGGSLRLSCAASGGIFFIYVMGWYRQAPGKERELVAAISGSGGTTYYADSVKGRFTISRDNAKNTVYLQMNSLKPEDTAVFYCNRVSDYTLYYWGQGTQVTVSS”, the “polyreactivity (PSR sort gate)” value is reported as “low polyreactivity”.
With “QDQLVESGGGLVQAGGSLRLSCAASGGTFKFYAMGWYRQAPGKERELVAAITSGGSTSYADSVKGRFTISRDNAKNTVYLQMNSLKPEDTAVYYCNADFYQRYGVFSSRRYYYWGQGTQVTVSS” the “polyreactivity (PSR sort gate)” value was “high polyreactivity”.
For “QDQLVESGGGLVQAGGSLRLSCAASGGTFPEYALGWYRQAPGKERELLAAIRTDGRTYYADSVKGRFTISRDNAKNTVYLQMNSLKPEDTAVYYCAADSRYSRPYTWRKAYDYLGQGTQVTVSS”, the “polyreactivity (PSR sort gate)” value was “low polyreactivity”.
In the case of “QDQLVESGGGLVQAGGSLRLSCAASGGTFTVYAMGWYRQAPGKERELVATINWSRGSTYYADSVKGRFTISRDNAKNTVYLQMKSLKPEDNAVYYCNAAWQYKSVEYWGQGTQVTVSS”, the “polyreactivity (PSR sort gate)” value is reported as “low polyreactivity”.
With “QDQLVESGGGLVQAGGSLRLSCAASGIIFARYAMGWSRPAPGKERELVAAITSGGGSTYYADSVKGRFTISRDNAMNTVYLQMYSLKPEDTAVYYCAADYQTIGWGYDYWGQGTQVTVSS” the “polyreactivity (PSR sort gate)” value was “low polyreactivity”.
In the case of “QDQLVESGGGLVQAGGSLRLSCAASGIIFKFNVMGWYRQAPGKERELVAAISTGGSTYYADSVKGRFTISRDNAKNTVYLQMNSLKPEDTAVYYCNAVSPLSIWSSRDGWYGYWGQGTQVTVSS”, the “polyreactivity (PSR sort gate)” value is reported as “high polyreactivity”.
In the case of “QDQLVESGGGLVQAGGSLRLSCAASGIIFYRYAMGWYRQAPGKERELVAAITWSGVSTSYADSVKGRFTISRDNAKNTVYLQMNSLKPEDTAVYYCNKDPGTLYGDMDSWGQGTQVTVSS”, the “polyreactivity (PSR sort gate)” value is reported as “low polyreactivity”.
For “QDQLVESGGGLVQAGGSLRLSCAASGIIIVAYAMGWYRQAPGKERELVAAITVSGARTYYADSVKGRFTISRDNAKITVYFQMNSLKPEDTAVYYCAARYAGGGVLGHGYWGQGTQVTVSS”, the “polyreactivity (PSR sort gate)” value was “high polyreactivity”.
With “QDQLVESGGGLVQAGGSLRLSCAASGIILPRYAMGWYRQAPGKERELVAAISRGGGTYYADSVKGRFTISRDNAKNSVYLQMNSLKPEDTAFYYCDAAYVFVGSSHYYWGQGTQVTVSS” the “polyreactivity (PSR sort gate)” value was “high polyreactivity”.
For “QDQLVESGGGLVQAGGSLRLSCAASGINFKYYAMGWYRQAPGKERELVAAISRSGSSTYYADSVKGRFTISRDNAKNTVYLQMNSLIPEDTSVYYCADQPYDSNYGNSGYWGQGTQVTVSS”, the “polyreactivity (PSR sort gate)” value was “high polyreactivity”.
With “QDQLVESGGGLVQAGGSLRLSCAASGITFPKYAMGWYRQAPGKERELVAAITKSGGSTYYADSVKGRFTISRDNAKNTVYLQMNSLKPEVTAVYYCAARPRYGEYDYWGQGTQVTVSS” the “polyreactivity (PSR sort gate)” value was “high polyreactivity”.
In the case of “QDQLVESGGGLVQAGGSLRLSCAASGITLFYYAMGWYRQAPGKERELVAVISASGGSTYYADSVKGRFTISRDNAKNTVYLQMNSLKQEDTAVYYCAAVAYWRSSSWYYYWGLGTQVTVSS”, the “polyreactivity (PSR sort gate)” value is reported as “high polyreactivity”.
With “QDQLVESGGGLVQAGGSLRLSCAASGLIFGGYDMGWYRQAPGKERELVAAISCDDGDTYYADSVKGRFTISRDNAKNTVYLQMNSLKPEDTAVYYCAAESLSGAHGYWGQGTQVTVSS” the “polyreactivity (PSR sort gate)” value was “low polyreactivity”.
For “QDQLVESGGGLVQAGGSLRLSCAASGLIFRHYAMGWSRQAPGKERELVAAITWSGGSTYYADSVKGRFTISRDNAKNTVYLQMNSLKAEDTAVYYCAAEGTGYSVGWQYGYWGQGTQVTVSS”, the “polyreactivity (PSR sort gate)” value was “low polyreactivity”.
For “QDQLVESGGGLVQAGGSLRLSCAASGLIFVGYALGGYRQAPGKERELVAAITSGGSTKYADSVKGRFTSSRDNAKNTVYLQMNSLKPEDTAVYYCAASGWRNWWSARNYYWGQGTQVTVSS”, the “polyreactivity (PSR sort gate)” value was “high polyreactivity”.
In the case of “QDQLVESGGGLVQAGGSLRLSCAASGLISSINAMGWYRQAPGKERELVAAISFSGGRTYYADSVKGRFTISRDNAKNTVYLQMNSLKPEDTAVYYFNAVSGGHRSRYGYWGQGTLVTVSS”, the “polyreactivity (PSR sort gate)” value is reported as “high polyreactivity”.
In the case of “QDQLVESGGGLVQAGGSLRLSCAASGLTFFYYAMGWSRQSPGKERELVAAISRGGSTYYADSVKGRFTISRDHAKYTVYLQMKSLNPEDTAVYYCAAKTYQKEIVRPMYYWGQGTQVTVSS”, the “polyreactivity (PSR sort gate)” value is reported as “high polyreactivity”.
With “QDQLVESGGGLVQAGGSLRLSCAASGLTFGRYAMGWYRQAPGKERELVAAITWNGDGTYYADSVKGRFTISRDNAKNTVYLQMNSQKPEDSAVFYCAADYYTYLYGRYNYWGQGTQVTVSS” the “polyreactivity (PSR sort gate)” value was “low polyreactivity”.
With “QDQLVESGGGLVQAGGSLRLSCAASGLTFGYYAMGWYRQAPGKERELVAAINSGGSTYYADSVKGRFTISRDNAKNTVYFQMNSLKPEDTAVYYCNATLDLYDSVSYTGPGMDYWGQGTQVTVSS” the “polyreactivity (PSR sort gate)” value was “low polyreactivity”.
In the case of “QDQLVESGGGLVQAGGSLRLSCAASGNIFPSYVMGWYRQAPGKERELVAAITWKGGSTYYADSVKGRFTISRDNAKNTVYLQMNSLKPEDTAVYYCNAVGNLYSRDDYWGQGTQVTVSS”, the “polyreactivity (PSR sort gate)” value is reported as “low polyreactivity”.

Source: the nanobody polyreactivity screen of Harvey et al. (2022)
